Ends that are not written are not given here. Peptide text beside a SMILES is read from it. * marks the point of attachment. X1 = CCN1C(=CC=CC=CC2=[N+](CCCCCC(=O)NCCN3C(=O)CC(*)C3=O)c3ccc(S(=O)(=O)[O-])cc3C2(C)C)C(C)(C)c2cc(S(=O)(=O)O)ccc21
B1: PSD-95-PDZ2 (157-249, human) (domain or fragment, UniProt P78352 157-249, looked up)
chain: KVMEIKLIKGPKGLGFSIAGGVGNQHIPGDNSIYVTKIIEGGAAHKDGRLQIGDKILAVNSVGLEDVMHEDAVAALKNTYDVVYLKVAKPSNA
notes: PSD-95, human, PDZ2 domain, residues 157-249; Construct of the ITC and NMR experiments; 15N-labelled in some NMR samples
B2: extended Mus musculus nNOS-PDZ (residues 12-134) (domain or fragment, UniProt Q9Z0J4 12-134, looked up)
chain: QPNVISVRLFKRKVGGLGFLVKERVSKPPVIISDLIRGGAAEQSGLIQAGDIILAVNDRPLVDLSYDSALEVLRGIASETHVVLILRGPEGFTTHLETTFTGDGTPKTIRVTQPLGTPTKAVD
notes: neuronal nitric oxide synthase (nNOS), Mus musculus, extended PDZ domain, residues 12-134, Uniprot Q9JJ30; Construct of the ITC and NMR experiments; 15N-labelled in some NMR samples; also called extended nNOS-PDZ; source: sub-cloned into pETM11, expressed and purified following a similar protocol to that of PSD-95-PDZ2

Key:
[1] = target: PDZ2 (155-249) from PSD-95 (human); test: fluorescence polarisation; inhibition of TAMRA-Cnskr2 (5 nM)/PDZ2 (1.5 μM) or PDZ1-2 (1 μM) by increasing unlabelled nNOS-PDZ or GluN2B-C5; 1 x TBS pH 7.4; Ki calculated from IC50
[2] = target: PDZ1-2 (61-249) from PSD-95 (human); test: as above
nNOS-PDZ = target: T1, nNOS-PDZ (Homo sapiens, UniProt P29475); test: FP saturation and inhibition assay, Cy5-Nav1.4 probe / nNOS-PDZ; type: binding
T1 construct: nNOS-PDZ (12–130, human); made in house; host or cells: E. coli
Description: Fluorescent probes were made by attaching fluorophores (Cy5) to C-terminal 10- or 11-mer (C10 or C11) peptide ligands representing canonical and natural occurring protein partners (Supplementary Table S1). […] (Fig. 2).
(b) Cy5-GluN2B as probe (50 nM), [PDZ2] = 6 μM. (c) Cy5-CRIPT as probe (50 nM), [PDZ3] = 5 μM. […] Error bars indicate SEM based on three individual measurements.
nNOS-PDZ (12–130, human) and α-Syntrophin-PDZ (82–200, human), both comprising an N-terminal His-tag/FXa-site sequence ([…]), were likewise expressed in E. coli and purified by HisTrap chromatography followed by gel-filtration as described in details previously. To make the TAMRA-labelled nNOS-PDZ, mutant nNOS-PDZ (V36C) protein was generated by standard site-directed mutagenesis and characterized as described previously. Here, dithiothreitol was added to the pooled protein sample after HisTrap purification to a final concentration of 10 mM to eliminate unwanted disulfide bonds, and a final gel-filtration (50 mM NaPi buffer pH 7.5) was performed to remove impurities and salts. Next, purified nNOS-PDZ (V36C) was desalted by dialysis into 50 mM (NH4)2CO3 buffer (SnakeSkin dialysis tubing 3.5 MWCO, Pierce, Rockford, IL, USA) and subsequently lyophilized. nNOS-PDZ (V36C) was redissolved in 500 μL buffer (6 M GnHCl, 200 mM NaPi) and solid TAMRA-maleimide (5-tetramethylrhodamine-C2-maleimide; Anaspec, Fremont, CA, USA) was added in excess (cf. ESI-LC-MS). The coupling reaction was incubated at room temperature for 16 hours and TAMRA-labelled nNOS-PDZ was purified by preparative HPLC, and refolded in assay buffer. Functional validation was performed by FP[19], and all final proteins were characterized for purity and identity by SDS-PAGE and ESI-LC-MS.
Incubation time was 10–15 minutes (room temperature), and the assay was performed in a 1 × TBS buffer (150 mM NaCl, 10 mM Tris, pH 7.4) using black flat-bottom 384-well plates (Corning Life Sciences, NY) and a Safire2 plate-reader (Tecan, Männedorf, Switzerland). G-factor was adjusted so that probe alone (i.e. without protein interacting-partner) would give an FP value of 20 mP. This background value was subsequently subtracted from the raw data before plotting and analyzing the data. TAMRA- and Cy5-probes were measured at excitation/emission values of 530/585 nm (bandwidth = 20 nm) and 635/670 nm (bandwidth = 15 nm), respectively. […]
FP values were fitted to the general equation: Y = Bottom + (Top–Bottom)/[1 + (10^(X-logIC50)*HillSlope)], where X is the logarithmic value of peptide/compound concentration, and Y is the experimental FP values. Competitive inhibition constants, Ki values, were calculated from the IC50 values to quantify affinities between test substance and protein[42]. […]

[3] = target: TAMRA-labelled nNOS-PDZ (V36C) (human) (UniProt P29475); test: fluorescence polarisation; saturation binding: increasing PDZ domain protein (typically 0-150 μM) added to a fixed low concentration of TAMRA- or Cy5-labelled probe (5 or 50 nM); 1 x TBS (150 mM NaCl, 10 mM Tris, pH 7.4), 10-15 min, room temperature
Cy5-Nav1.4 = test: as above
TAMRA-Cnskr2 = test: as above
[4] = target: B2; test: ITC; 25 °C, 20 mM phosphate buffer pH 6.3; 100 μM PDZ2 in the cell titrated with 750 μM nNOS-PDZ; one-site model; conditions: both partners purified
[5] = target: B1; test: as above; conditions: both partners purified
PSD-95-PDZ2 [6] = target: T2, PSD-95-PDZ2 (Homo sapiens, UniProt P78352); test: FP saturation and inhibition, TAMRA-Cnskr2 / PSD-95-PDZ2; type: binding; parameters: PDZ2 (155-249); made in house; host or cells: E. coli BL21-DE3 pLysS; conditions: TAMRA-Cnskr2 5 nM, PDZ2 […]
From the text: (§1) First we tested a series of 23 fluorescent-labelled C-terminal peptide ligands (Supplementary Table S1) derived from PDZ-interacting proteins in order to find a probe with good activity towards the PSD-95 PDZ domains and no or little activity against nNOS-PDZ (Supplementary Fig. S1). The Cnskr2 probe fulfilled these selectivity criteria and was used to generate saturation curves with PDZ2 and PDZ1-2 of PSD-95 (Fig. 4a). […] Next, fixed concentrations of TAMRA-Cnskr2, PSD-95-PDZ2/1-2, and nNOS-PDZ were applied, corresponding to the conditions at IC50 of the nNOS-PDZ inhibition curve (Fig. 4b) where sensitivity of the assay is greatest. […] Here, we used the Sapk3-peptide as it has the desired high affinity to α1-Syntrophin-PDZ and low affinity to nNOS-PDZ (Supplementary Fig. S1).
(§2) The minor increases in mP at high concentrations, 260-2900 μM, were due to fluorescence artefacts.
(§3) Incubation time was 10–15 minutes (room temperature), and the assay was performed in a 1 × TBS buffer (150 mM NaCl, 10 mM Tris, pH 7.4) using black flat-bottom 384-well plates (Corning Life Sciences, NY) and a Safire2 plate-reader (Tecan, Männedorf, Switzerland). […] TAMRA- and Cy5-probes were measured at excitation/emission values of 530/585 nm (bandwidth = 20 nm) and 635/670 nm (bandwidth = 15 nm), respectively. […]

PSD-95-PDZ2 [7] = target: T2, PSD-95-PDZ2; test: ITC titration into PSD-95-PDZ2; type: binding; parameters: PSD-95-PDZ2 (157–249, human); made in house
From the text: Unlike the FP experiments above, which rely on inhibition of interaction partners, the ITC method is a direct measure of binding, regardless of where it takes place on the protein.
Figure 5 ITC curves. Plots showing titrations into PDZ domains fitted to a one-site model.
For isothermal titration calorimetry (ITC) and NMR, PSD-95-PDZ2 (157–249, human) was expressed and purified as described previously. The sequence for the extended Mus musculus nNOS-PDZ (residues 12–134, Uniprot Q9JJ30) was sub-cloned into a pETM11 vector using cloning sites Nco1 and Kpn1, and the protein was expressed and purified following a similar protocol to that used for the production of PSD-95-PDZ2.
All ITC experiments were carried out at 25 °C on an iTC200 Microcalorimeter (GE Healthcare) with a 200 μL cell capacity and 40 μL syringe volume. The buffer used for all solutions was 20 mM phosphate buffer at pH 6.3; each experiment consisted of an initial injection of 0.5 μL, followed by fifteen 2.39 μL injections before a final injection of 1.89 μL. […] In both cases no heat exchange was detected, confirming that there was appropriate match of buffer conditions with no indication of dilution effects. […] For the nNOS-PDZ/PSD-95-PDZ2 interaction, 100 μM PDZ2 in the cell was titrated with 750 μM nNOS-PDZ. […] All data was analysed using the Origin®7 software programme.

PSD-95-PDZ1-2 = target: T3, PSD-95-PDZ1-2 (Homo sapiens, UniProt P78352); test: FP saturation and inhibition, TAMRA-Cnskr2 / PSD-95-PDZ1-2; type: binding; conditions: TAMRA-Cnskr2 5 nM, PDZ1-2 1 μM
T3 construct: PDZ1-2 (61-249); made in house; host or cells: E. coli BL21-DE3 pLysS
From the text: as §1, §2, §3

[8] = target: PDZ2 (155-249) from PSD-95 (human); test: fluorescence polarisation; 'direct' FP inhibition assay: TAMRA-nNOS (5 nM) with fixed PDZ1 (7.5 μM), PDZ2 (2.5 μM) or PDZ1-2 (0.3 μM); increasing control compound; 1 x TBS pH 7.4
[9] = target: PDZ1 (61-151) from PSD-95 (human); test: as above
[10] = ITC, nNOS-PDZ titrated into PSD-95-PDZ2

GluN2B-C5 (peptide) was tested, and the Ki [1] was 1600 nM and the Ki [2] was 4800 nM.

NNGVRPGVKESLV [Nav1.4-C10] showed a Ki (nNOS-PDZ; Cy5-Nav1.4 probe 50 nM / nNOS-PDZ) of 45000 ± 4000 nM.

“PDZ1 (61-151) from PSD-95 (domain or fragment)” gave a Kd [3] of 2400 nM.

`CCN1C(=CC=CC=CC2=[N+](CCCCCC(=O)NCCN3C(=O)CC(SC[C@H](N)C(=O)N[C@@H](CC(N)=O)C(=O)N[C@@H](CC(N)=O)C(=O)NCC(=O)N[C@H](C(=O)N[C@@H](CCCNC(=N)N)C(=O)N4CCC[C@H]4C(=O)NCC(=O)N[C@H](C(=O)N[C@@H](CCCCN)C(=O)N[C@@H](CCC(=O)O)C(=O)N[C@@H](CO)C(=O)N[C@@H](CC(C)C)C(=O)N[C@H](C(=O)O)C(C)C)C(C)C)C(C)C)C3=O)c3ccc(S(=O)(=O)[O-])cc3C2(C)C)C(C)(C)c2cc(S(=O)(=O)O)ccc21` (stereo partly drawn) [Cy5-Nav1.4] (H-C(X1)NNGVRPGVKESLV-OH; N-terminus assumed) showed a Kd (nNOS-PDZ; saturation curve, probe 50 nM) of 20000 ± 1000 nM.

“nNOS-PDZ (12-130, human) (from UniProt P29475 12-130) (domain or fragment)” showed a Ki [1] of 88 nM, a Ki [2] of 810 nM and a Kd (Cy5-Nav1.4) of 20000 nM. For the same molecule, the Kd (TAMRA-Cnskr2) was over 190000 nM.

With “PDZ1-2 (61-249) from PSD-95 (domain or fragment)” the Kd [3] was 150 nM and the Kd (TAMRA-Cnskr2) was 1100 nM.

In the case of “PDZ2 (155-249) from PSD-95 (domain or fragment)”, the Kd [3] is reported as 1100 nM and the Kd (TAMRA-Cnskr2) is reported as 380 nM.

B1 showed a Kd [4] of about 670 nM.

With B2 the dH [5] was about -1.7 kcal/mol and the “stoichiometry N” value [5] was 1.

B3: nNOS-PDZ: recombinant extended PDZ domain of nNOS (12–130 human for FP; 12–134 Mus musculus for ITC/NMR) (protein, UniProt P29475 12-130, looked up, fragment)
chain: QPNVISVRLFKRKVGGLGFLVKERVSKPPVIISDLIRGGAAEQSGLIQAGDIILAVNGRPLVDLSYDSALEVLRGIASETHVVLILRGPEGFTTHLETTFTGDGTPKTIRVTQPLGPPT
With B3 the Ki (PSD-95-PDZ2 [6]) was 88 ± 14 nM, the Kd (PSD-95-PDZ2 [7]; 100 μM PDZ2 in cell titrated with 750 μM nNOS-PDZ, pH 6.3, 25 °C) was about 670 nM and the “N (stoichiometry ratio)” value (PSD-95-PDZ2 [7]; [10]) was 1.0. For the same molecule, the “T∆S” value (PSD-95-PDZ2 [7]; [10]) was about 6.7 kcal/mol, the “∆H” value (PSD-95-PDZ2 [7]; [10]) was about -1.7 kcal/mol and the Ki (PSD-95-PDZ1-2) was 810 ± 23 nM.

With {N‑cyclohexylethyl}-ETAV [N-cyclohexylethyl-ETAV] the Ki [8] was 2000 nM and the Ki [9] was 3900 nM.

Source: publication PMC4503980 (Scientific Reports, 2015)
